From the DeepSol protein solubility set come the findings set out here.

This data set can be described thus: soluble on expression in E. coli; label from the status in PepcDB or PDB records.
Regarding “MGSDKIHHHHHHMFDRSRKGEHALLIQTHSGGPAEEDVLEEFAELAKSAGATVAATLTARIDKPSPSTLIGSGKLEEVKAAAEATGADLVLVNHTLSPGQERNLERYLERRVIDRTGLILDIFAQRARSHEGKLQVELAQLRHMATRLVRGWTHLERQRGGAIGLRGPGETQLETDRRLLQKRVEQLQKRLEKVEVQRTQMRRARMRSELPRIALVGYTNAGKSTLFNALTGADAYAADQLFATLDPTVRRIALPGGSAVLADTVGFVRDLPHELVAAFRSTLSEARDADLLLHIVDAADPLREERIHQVDEVLQAVGAGDLPQLLVFNKIDKIEGAEVRHDAQDGIPDQARRERVWISARDGRGLEELQRALGHRLDLRHITGSLRLPASAGRLRSKLHQLEVIRSEQVDEEGWLLEVDLPYVEAERLAAGEDGAPLRALLPDRREDWET”, the “soluble on expression in E. coli” value is given as “not soluble”.

“MLFFLIFLGLMATASAKAGRCNEGDQDAHFDSNKFWKCEGGRWIVVTCQINYFYDATTGFCYLSRFPTTRPYPPPFPTRPRPTQGHRCYPGTRIPYPHDHTMFLECSTDGTEYIKRYCQPDAVFVQRENMCVAIQTTYRPTRTWPTTTTTPYYGACKESAGHDGYKPDVYNCKNFYQCASGLWTQRSCGEGTIWDQHKLTCDHNRGQCRPTSPTVQPTYQPTWRPTAYPPNEVKK”: the “soluble on expression in E. coli” value was “soluble”.

Consider “MREWINQSKIDLLAKEIGEENVPILVNIFLGELNDYQSKLVSDTVADKLGYLKEISHALKSSAASFGADRLCAKAVELDSRAKSGEMMDISLEVEHMLELLKQTHQCYSDLVH”, for which the “soluble on expression in E. coli” value is reported as “not soluble”.

As to “MSQAHTPSAPLAEVYDVAVVGGGINGVGIAADAAGRGLSVFLCEQHDLAQHTSSASSKLIHGGLRYLEHYEFRLVREALAEREVLLAKAPHIVKPLRFVLPHRPHLRPAWMIRAGLFLYDHLGKREKLPASRGLRFTGSSPLKAEIRRGFEYSDCAVDDARLVVLNAISAREHGAHVHTRTRCVSARRSKGLWHLHLERSDGSLYSIRARALVNAAGPWVARFIQDDLKQKSPYGIRLIQGSHIIVPKLYEGEHAYILQNEDRRIVFAIPYLDRFTMIGTTDREYQGDPAKVAISEEETAYLLQVVNAHFKQQLAAADILHSFAGVRPLCDDESDEPSAITRDYTLSLSAGNGEPPLLSVFGGKLTTYRKLAESALTQLQPFFANLGPAWTAKAPLPGGEQMQSVEALTEQLANRYAWLDRELALRWARTYGTRVWRLLDGVNGEADLGEHLGGGLYAREVDYLCKHEWAQDAEDILWRRSKLGLFLSPSQQVRLGQYLQSEHPHRPRVHAALEHHHHHH”, the “soluble on expression in E. coli” value is recorded as “soluble”.

In the case of “MSLDRVDWPHATFSTPVKRIFDTQTTLDFQSSLAIHRIKYHLHKYTTLISHCSDPDPHATASSIAMVNGLMGVLDKLAHLIDETPPLPGPRRYGNLACREWHHKLDERLPQWLQEMLPSEYHEVVPELQYYLGNSFGSSTRLDYGTGHELSFMATVAALDMLGMFPHHRGADVFLLFNKYYTIMRRLILTYTLEPAGSHGVWGLDDHFHLVYILGSSQWQLLDAQAPLQPREILDKSLVREYKDTNFYCQGINFINEVKMGPFEEHSPILYDIAVTVPRWSKVCKGLLKMYSVEVEKKFPVVQHFWFGTGFFPWVNIHHHHHH”, the “soluble on expression in E. coli” value is recorded as “soluble”.

As to “MGSDKIHHHHHHMIYIGLTGWGDHDELYTMGTKPSEKLYTYGSHFPTVEVDSSFYAIQPKRNMEKWASDTPDCFRFVVKAYQGLTGHQRGEIPFSSKEDMFAAFVESLQPLLESNKLAMVLFQFPPWFDCTKEHVRYLRYCKQQMGKIPVALEFRHQSWFRPSVRERTLSFMREEGWIHSICDEPQGGEGSVPTVLVPSNEENVLVRFHGRNVEGWRRPQEGNWREVRYLYRYSKEELAEWAEHLKQLAAQVKDVYVLFNNNSGGDAAANAKQMLELLEIEYHGLTPKQLNLFE”, the “soluble on expression in E. coli” value was “not soluble”.

Turning to “MKKDQYFNLEVNFLSNDNIVRMMMELDAAQSLGIYMMLLTHLRKADNYEASCCPLCMGAFARMYDLDAGVLQRVLREFDLFVLDEERQMFRSPYLDRVMARLEERRMINVANGKKGGRPKRMESTPETPMDKGEKPNQNQKSREEERRVTTVVKDNNSSNEEKTEKENSAAASDRLQIVSPPEDRGQLPLQPVLPWEMLVDQMAESESYMESMAMHSCMGKLFVERQEEVIAAFKEHIRRFGREDGLLFLRDVKLYFGNYLSPGGRPAQELKKRLLGSCRQSAEEELYRFEQLIGGQRTYLGHPIPKDAPPRPDRSAVWDEVHWKWGN”, the “soluble on expression in E. coli” value is reported as “not soluble”.

In the case of “MKHLKFQSVFDIIGPVMIGPSSSHTAGAVRIGKVVHSIFGEPSEVTFHLYNSFAKTYQGHGTDKALVAGILGMDTDNPDIKNSLEIAHQKGIKIYWDILKDSNSPHPNTAKITVKNGDRSMSITGVSIGGGNIQVTELNGFSVSLTMNTPTLIIVHQDIPGMIAKVTDILSDFNINIAQMNVTRESAGEKAIMIIEVDSRDCQQAVKKIEAIPHLHNVNFFD”, the “soluble on expression in E. coli” value is “soluble”.

Take “MGSDKIHHHHHHMQWETVIGLEIHAQLSTRSKIFSGASVAYGAEPNSQACAVDIALPGVLPVLNRQAIEYAIRFGLAIDATINSPSVFARKNYFYPDLPKGYQISQLEHPIVEGGHVAIQTGDQEKTIRLTRAHLEEDAGKSTHEEFHGMTGIDLNRAGTGLLEIVSEPDMRSSAEAVAYAKVLHSLVRWIGICDGNMQEGSFRCDANVSVRPAGSEALGTRCEIKNLNSFRFLERAIDYEVARQIDILESGGSITQETRLYDADRDETRTMRSKEDAHDYRYFPDPDLLPVIIPQEWIDQIREKLPELPKDKRNRYIQDFGLQTYDANILTAARELADYFEQMVSVLPGQSKLCANWIMGEVSARLNKEGLEIARSPISPEQLAGLLLRITDGTISGKIAKDVFDSMWQSNGDSADTIIDAKNLRQISDDSEIEKWVDDVLAANPQQVADYRAGKEKAFNSLVGQVMKTSKGKANPAQVNSVLKKRLTE”: the “soluble on expression in E. coli” value was “not soluble”.

For the sequence “ESVKGAQTDLTSLTDESQEKTLENGSPSSKIAVLEVSGTIQDNGDSSSLLGADGYNHRTFLKNLERAKDDKTVKGIVLKVNSPGGGVYESAEIHKKLEEIKKETKKPIYVSMGSMAASGGYYISTAADKIFATPETLTGSLGVIMESVNYSKLADKLGISFETIKSGAHKDIMSPSREMTKEEKNIMQSMVDNSYEGFVDVISKGRGMPKAEVKKIADGRVYDGRQAKKLNLVDELGFYDDTITAMKKDHKDLKNASVISYEESFGLGSLFSMGANKMFKSEIDFLNMREILSQSGS”, the “soluble on expression in E. coli” value is “not soluble”.

Turning to “MKKGVLIAFEGIDGSGKSSQATLLKDWIELKRDVYLTEWNSSDWIHDIIKEAKKKDLLTPLTFSLIHATDFSDRYERYILPMLKSGFIVISDRYIYTAYARDSVRGVDIDWVKKLYSFAIKPDITFYIRVSPDIALERIKKSKRKIKPQEAGADIFPGLSPEEGFLKYQGLITEVYDKLVKDENFIVIDGTKTPKEIQIQIRKFVGELIDNSF”, the “soluble on expression in E. coli” value is listed as “soluble”.

Regarding “FMQEPEAIETALHRLSDHDLIVIQVLDPTEKVLPLQGNSKLVDLETGEEIRTYISDNFKERYTRKLDDHSARIKKTCMKVGAEFYTFTTDTPVFNAFYNTIRRRRR”, the “soluble on expression in E. coli” value is reported as “not soluble”.

In the case of “MPDEAVDGSTPDQGKKNNNGRGRGQGSGGNRGRGGSTANNNASRRPNPARQNQSSRQPTKVDMKKYERMISAAHTNFSDIPCGQKSIDCDICCKKNDVFGIGSCRHPVCAECVIRMRILGNSKTCPVCRSDIDILSFCTTDDDLANVPLSFKKTAHPDEDRYDIRFSNKIAGTKYEKYLAHVCKICKTDDGERLEFPSFMSLRQHMASRHEQSYCHICTDNLNLFSRERKTYTRDQLQRHMRSGDFDDKSFKGHPQCLFCEQKFLDEENRYRHLRKDHFFCQFCESDGTMTNVFFGKHDGLKKHYKEHHYICETEECREMGIAFANKFELDLHRANEHAERRNLIELGFGQRPSDPGRPIGRGRGLRSNEPPPPPVPRERIAVVQRQVETNPQSDPSQFTTVRSAQSKGVFTSTRSAYTSNQQEFPSLAPQAPPPNVRSSEFPRLNKANKPAAPAAPAVVDHFPSLGDSSSSSSAPPLRIKVPPLVKKRQPPPPAPAPQKAKASSARQNAPREEDDEYISRRDVPQAVVKVNNSLLRFDTVDDRVIPQNAKSNIQMIQRVDQKSAAESSSSAPSSGRLDFPALPAASAPMMPANSSWLNSKNSKIKSGVISSVSVPANYSKATQNKNKKKNKISVPKTEVWSSLGPPPDSAVASVPVETWQDIPLSKEAQLEKEKRERKEDWARKKAEIQARVAAASKDKSNEVDSDSEPEPARPITPPVHHSNIEKSESSEWTMANSKSGDSLKNAQLMANQKKNKKNKNNMEIPSANKVPSSQSSIVPSAPKVDSLIVEKVVAKTEPKNDENQDKPDLWNMPKLPSMTSMFSSFSLSGMFGMGTSYSDSSSMAAPPPGLENVVLTPPPGLGFPSPKSDDISFASAPILSHDDVKAKRERLEAEKQKNQKEAEKEDDGWVTTSKPKNNKKNNKK”, the “soluble on expression in E. coli” value is “not soluble”.

“MMIIGINGSPRKNGNTIEMLKSALDGAKAQGAETELINLYDYNYKGCVSCFSCKLKGGRSYGKCALKDDLKPILEKIEKADAFILASPIYFGMVTGEMRSFMERLLFQYLVYDKDHSSLFNRKIKTGFIYTMNVPETYLDSVGYNKLFESNEATLKRIFGASEYILSTDTYQFDDYSKYEASMFDVEAKKKRREEVFPEDCKRAYEMGASFVKLEHHHHHH”: the “soluble on expression in E. coli” value is on record as “not soluble”.

For the sequence “MGSDKIHHHHHHMHFYRSLGPIRAITFDLDDTLYDNADVIRRTGQESIRFLQEYHPALRDFQADDFQNLRQTLLEREPDIYHDVTEWRRRAVELAMLDRGLSAAESKDGAKAAMENFAHWRSQIAITEETHQTLAALAEKVPLAAITNGNAEPHRFGLERYFSFILRAGPHGRAKPFDDMYHLAAEKLNLPLHEILHVGDDLTTDVAGSIRCGMQACWINLREGSLTQIGDARLLPHIEISRLASLSALL”, the “soluble on expression in E. coli” value is listed as “not soluble”.

On to “PFRLHATYDESISRMLDVFEKVDRDIPFNGLPWFFDHAETISPKNIERVRALGGGIAIQDRMAFQGEYFVERYGAKAAEMTPPIQRMLAEGIPVGAGTDATRVSSYNPWTSLYWMVSGRTVGGLELYPQGLSRDTALELYTHGSAWFSSEQGKKGQIKVGQLADLVALSADYFSVEEEAIKWIESLLTVVDGKVVHAAGDFDQLAPPSLPVTPDWSPVAKVPGHWKPGAPLQNQVHQCSGPCAVHAHGHQKARMSNVPVSDFQGFWGAFGCSCFA”, for which the “soluble on expression in E. coli” value was “not soluble”.

With “MTQIARIRDNTSERRLQAERLIGARALQEAQALRFSVFSEEFNARLKGAEQGLDIDDYDIHCSHIGVRDLNTGRLVATTRLLDHKAANTLGSFYSEEEFSLHGLAHLQGPILELGRTCVDPAYRNGGTIAVLWSELAEVLNEGGYSYLMGCASIPMQDGGIQAHAIMQRLRERYLCNEHLRAEPKNPLPTLDIPSNVICEMPPLLKAYMRLGARICGEPCWDEDFQVADVFILLKRDDLCPRYARHFKAAV”, the “soluble on expression in E. coli” value is “not soluble”.

Take “MGSDKIHHHHHHMHTESIKTPTDNHAKGAVSSTVSPTTYTPDLPSDEEDYSTLINMLPPVAPSSTPTEDESTESDNMPTDALHDFSQSLETQYGIAPGVNIQQQRQQRAEANGLTFACVGRQPVDDIWQIYPARKHKLEAYSLALDIAESVGLERYVEHVVNTPVDYAYRMLPLENAVENEMVKMCYDLLMLLQTVDSTSYPSVSITLSFLLDAEKIDDVTLVKLFRLIRLVRYIRQGAHHDNV”: the “soluble on expression in E. coli” value is reported as “not soluble”.

“MKISLSTSLFSIEQKVEYFNLNYQSLSDFSVVAKLNYTFTWYGNDFSIGFAPKKGEKLYFDLFFTFKASPNHPFAAENFKPDSEAIDFYVSFSWRLEGKDEVSKKLFELSVFGRARAFQIDDYKINLFSYLVYVIR”: the “soluble on expression in E. coli” value is “soluble”.
